Results as given in paper PMC3143299 (Journal of molecular biology, 2011).
Several values for one entry are separate records, joined by “and”; a condition that tells them apart may be missing. Identical values can stand only once.

How the values were obtained:
[1] = target: actin purified from rabbit skeletal muscle (F-actin) (rabbit, UniProt P68135 1-377); experiment: co-sedimentation
cross-linking = target: the molecule itself; experiment: cross-linking

Kd [1]: 160 ± 30 nM
stoichiometry N [1]: 2 FRG1 per actin monomer
B1: recombinant full-length human FRG1 (His-tagged) (natural protein)
chain: not shown
stoichiometry N (cross-linking): 2 and 4
